Target: the molecule itself
Test: SAXS

B1: Human Presequence Protease E107Q (hPreP E107Q) (enzyme, UniProt Q5JRX3 34-1037, looked up)
chain: CERALQYKLGDKIHGFTVNQVTSVPELFLTAVKLTHDDTGARYLHLAREDTNNLFSVQFRTTPMDSTGVPHILQHTVLCGSQKYPCRDPFFKMLNRSLSTFMNAFTASDYTLYPFSTQNPKDFQNLLSVYLDATFFPCLRELDFWQEGWRLEHENPSDPQTPLVFKGVVFNEMKGAFTDNERIFSQHLQNRLLPDHTYSVVSGGDPLCIPELTWEQLKQFHATHYHPSNARFFTYGNFPLEQHLKQIHEEALSKFQKIEPSTVVPAQTPWDKPREFQITCGPDSFATDPSKQTTISVSFLLPDITDTFEAFTLSLLSSLLTSGPNSPFYKALIESGLGTDFSPDVGYNGYTREAYFSVGLQGIAEKDIETVRSLIDRTIDEVVEKGFEDDRIEALLHKIEIQMKHQSTSFGLMLTSYIASCWNHDGDPVELLKLGNQLAKFRQCLQENPKFLQEKVKQYFKNNQHKLTLSMRPDDKYHEKQAQVEATKLKQKVEALSPGDRQQIYEKGLELRSQQSKPQDASCLPALKVSDIEPTIPVTELDVVLTAGDIPVQYCAQPTNGMVYFRAFSSLNTLPEELRPYVPLFCSVLTKLGCGLLDYREQAQQIELKTGGMSASPHVLPDDSHMDTYEQGVLFSSLCLDRNLPDMMQLWSEIFNNPCFEEEEHFKVLVKMTAQELANGIPDSGHLYASIRAGRTLTPAGDLQETFSGMDQVRLMKRIAEMTDIKPILRKLPRIKKHLLNGDNMRCSVNATPQQMPQTEKAVEDFLRSIGRSKKERRPVRPHTVEKPVPSSSGGDAHVPHGSQVIRKLVMEPTFKPWQMKTHFLMPFPVNYVGECIRTVPYTDPDHASLKILARLMTAKFLHTEIREKGGAYGGGAKLSHNGIFTLYSYRDPNTIETLQSFGKAVDWAKSGKFTQQDIDEAKLSVFSTVDAPVAPSDKGMDHFLYGLSDEMKQAHREQLFAVSHDKLLAVSDRYLGTGKSTHGLAILGPENPKIAKDPSWIIQ
  stoichiometry N: 2

From paper PMC4128088 (Structure (London, England : 1993), 2014)
